{"source": "patent US20260053892A1", "about": "“Induction and Expansion of Regulatory T Cells” (Board of Regents of the University of Nebraska, priority 2022, published 2026)", "molecules": {"B1": {"name": "granulocyte-macrophage colony-stimulating factor (protein, UniProt P01587 18-141, looked up)", "Granulocyte-macrophage …": "APTRSPITVTRPWKHVEAIKEALNLLDDMPVTLNEEVEVVSNEFSFKKLTCVQTRLKIFEQGLRGNFTKLKGALNMTASYYQTYCPPTPETDCETQVTTYADFIDSLKTFLTDIPFECKKPGQK", "notes": "granulocyte-macrophage colony-stimulating factor, immunomodulatory growth factor; 0.1 mg/kg i.p. in mice"}}, "key": {"[1]": {"settings": "3 or 6 μg/kg/day, cited from earlier work"}, "Tregs": {"system": "Tregs", "experiment": "Treg profiles by flow cytometry in blood, lymph nodes and spleen of treated mice", "assay_type": "in vivo, C57BL/6 male mice", "procedure": "C57BL/6 male mice (5-6 weeks old) were purchased from Jackson Laboratories (Bar Harbor, ME). […] Following a period of acclimation, mice were injected intraperitoneally (i.p.) with daily GM-CSF (Group 4) (Days 0-4). […] On Day 10, the mice were sacrificed, blood was collected, and spleen and lymph nodes were harvested.\nFollowing treatment, whole blood, lymph nodes and spleens were collected to determine T-cell profiles via flow cytometric analysis. Peripheral blood, lymph nodes, and splenocytes were fluorescently labeled using antibodies against cell surface antigens including CD3, CD4, CD25, CD8, CD19, CD127, ICOS, GITR, CD39, CD62L, CD44, GITR, and CTLA-4, and for the intracellular markers FoxP3 and STAT5. Whole blood, lymph nodes, and splenocytes were labeled with PerCP Cyanine 5.5-anti-CD3 (eBioscience/Thermo Fisher Scientific, Waltham, MA), APC-anti-CD19 (eBiosciences), PE-anti-CD25 (eBiosciences), PE-cyanine7-anti-CD4 (eBiosciences), PerCP-eFluor710-anti-CD39 (eBiosciences), Alexa Fluor™ 488-anti-CD278 (ICOS) (Biolegend, San Diego, CA), FITC-anti-CD127 (Biolegend), FITC-anti-CD44, Alexa Fluor™ 488-anti-CTLA-4, Alexa Flour™ 700-anti-GITR, FITC-anti-CD8, and PerCP Cyanine 5.5-anti-CD62L. Intracellular staining was performed following permeabilization for 45 minutes at 4° C. Cells were labeled with APC-anti-FoxP3 (eBioscience) or anti-STAT5-Pacific Blue. Samples were analyzed with an LSRII flow cytometer and FACSDiva™ Software (BD Biosciences, San Diego, CA).\nAll values are expressed as mean±SEM using ANOVA (mean±SEM, n=3). *=p≤0.05; **=p≤0.01; *** p≤0.001. Data were analyzed using GraphPad Prism 9.3.1 software (La Jolla, CA)."}, "[2]": {"settings": "in vivo; cited from earlier work"}}}
{"molecule": "sargramostim: human recombinant GM-CSF (sargramostim, Leukine®)", "values": [{"measurement": "Treg numbers", "setting": "[1]", "value": "increased"}, {"measurement": "Unified Parkinson's Disease Rating Scale (UPDRS) scores", "setting": "[1]", "value": "modestly improved"}, {"measurement": "Safety and tolerability", "setting": "[1]; low doses", "value": "safe and well-tolerated"}]}
{"molecule": "B1", "values": [{"measurement": "CD4+CD25+FOXP3+ Tregs", "setting": "Tregs; blood, FIG. 4", "value": "did not induce"}, {"measurement": "CD25+CD127− Tregs", "setting": "Tregs; blood, FIG. 5", "value": "did not induce"}, {"measurement": "CD25+ICOS+ Tregs", "setting": "Tregs; blood, FIG. 7", "value": "did not significantly induce"}, {"measurement": "CD4+CD25+ Tregs", "setting": "Tregs; lymph nodes, FIG. 2", "value": "only a mild increase"}, {"measurement": "CD25+GITR+ Tregs", "setting": "Tregs; lymph nodes, FIG. 9", "value": "did not induce"}, {"measurement": "CD4+CD25+FOXP3+ Tregs", "setting": "Tregs; spleen, FIG. 3", "value": "did not induce"}, {"measurement": "CD25+CD127− Tregs", "setting": "Tregs; spleen, FIG. 6", "value": "did not induce"}, {"measurement": "CD25+ICOS+ Tregs", "setting": "Tregs; spleen, FIG. 8", "value": "did not significantly induce"}, {"measurement": "CD25+CD39+ Tregs", "setting": "Tregs; spleen, FIG. 10", "value": "did not induce"}, {"measurement": "CD25+CD62L− Tregs", "setting": "Tregs; spleen, FIG. 11", "value": "did not significantly induce"}, {"measurement": "half-life", "setting": "[2]", "value": "six"}]}
